# Reference: patent US10941182 (Amgen, dated 2021)
# Starred links: 1 amine or outer side, 2 acyl side, 3 side chain; linkers in the order of their positions; H or OH if unused. Non-standard residues stand in square brackets, D forms with d. No end group written: not given here. *: point of attachment. dBip = N[C@H](Cc1ccc(-c2ccccc2)cc1)C(=O)O; Oic = O=C(O)[C@@H]1C[C@@H]2CCCC[C@@H]2N1; Phe(4-Cl) = N[C@@H](Cc1ccc(Cl)cc1)C(=O)O; dPhe(4-Cl) = N[C@H](Cc1ccc(Cl)cc1)C(=O)O; Phe(4-I) = N[C@@H](Cc1ccc(I)cc1)C(=O)O; γGlu = O=C(O)[C@H](CCC(=O)[*:2])N[*:1]; d1Nal = N[C@H](Cc1cccc2ccccc12)C(=O)O; NMeR = CN[C@@H](CCCNC(=N)N)C(=O)O; Tridecanoyl = CCCCCCCCCCCCC(=O)*; hArg = N=C(N)NCCCC[C@H](N)C(=O)O; β3hR = N=C(N)NCCC[C@H](N)CC(=O)O; Cha = N[C@@H](CC1CCCCC1)C(=O)O; β3hQ = NC(=O)CC[C@H](N)CC(=O)O; β3hN = NC(=O)C[C@H](N)CC(=O)O; NMeV = CN[C@H](C(=O)O)C(C)C; code O = not defined here; Nle = CCCC[C@H](N)C(=O)O; Orn = NCCC[C@H](N)C(=O)O; BPhe = β-phenylalanine; AEEA = NCCOCCOCC(=O)O; Aib = CC(C)(N)C(=O)O; Sar = CNCC(=O)O
# T1: human APJ receptor (human, UniProt P35414 1-380)
# T1 sequence (looked up): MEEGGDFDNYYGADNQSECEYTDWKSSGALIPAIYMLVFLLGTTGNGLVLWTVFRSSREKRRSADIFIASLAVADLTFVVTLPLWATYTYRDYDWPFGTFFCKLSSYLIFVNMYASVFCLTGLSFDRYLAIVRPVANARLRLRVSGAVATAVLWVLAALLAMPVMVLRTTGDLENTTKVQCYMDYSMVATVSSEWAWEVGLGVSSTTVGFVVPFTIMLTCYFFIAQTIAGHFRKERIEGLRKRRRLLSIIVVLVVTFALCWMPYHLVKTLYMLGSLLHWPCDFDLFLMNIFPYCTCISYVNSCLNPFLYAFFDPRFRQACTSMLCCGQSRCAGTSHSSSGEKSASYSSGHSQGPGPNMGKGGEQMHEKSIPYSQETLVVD
# T2: rat APJ receptor (rat, UniProt Q9JHG3 1-377)
# T2 sequence (looked up): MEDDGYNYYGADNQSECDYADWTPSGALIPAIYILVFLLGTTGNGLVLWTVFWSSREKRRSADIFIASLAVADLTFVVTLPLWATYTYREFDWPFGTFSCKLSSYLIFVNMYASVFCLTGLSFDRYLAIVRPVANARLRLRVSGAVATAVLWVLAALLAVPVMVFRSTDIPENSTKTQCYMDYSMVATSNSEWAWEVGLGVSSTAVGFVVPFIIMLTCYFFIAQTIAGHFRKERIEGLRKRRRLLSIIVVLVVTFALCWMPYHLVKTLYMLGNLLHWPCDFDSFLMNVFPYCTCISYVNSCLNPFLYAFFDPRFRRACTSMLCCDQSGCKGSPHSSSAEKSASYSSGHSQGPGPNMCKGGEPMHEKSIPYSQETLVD
# Key:
# human APJ receptor = target: T1, human APJ receptor; test: cell-based or functional assay
# rat APJ receptor = target: T2, rat APJ receptor; test: cell-based or functional assay
Binder,EC50 Human APJ Receptor (human APJ receptor),EC50 Rat APJ Receptor (rat APJ receptor)
[Orn]F[hArg][NMeR]Q[hArg]P[hArg][Cha]SHKG[Oic][Nle]P[Phe(4-Cl)] [apelin polypeptide SEQ ID NO: 670],0.131 nM,0.254 nM
[Orn]F[hArg][hArg]Q[NMeR]P[NMeR][Cha]SHKG[Oic][Nle]P[Phe(4-Cl)] [apelin polypeptide SEQ ID NO: 672],0.445 nM,0.845 nM
Q[hArg]P[NMeR][Cha]SHKG[Oic][Nle]P[Phe(4-Cl)] [apelin polypeptide SEQ ID NO: 675],0.159 nM,0.189 nM
Ac-[hArg]Q[dR]P[NMeR][Cha]SHKG[Oic][Nle]P[Phe(4-Cl)]-OH [apelin polypeptide SEQ ID NO: 23],0.384 nM,32.2 nM
Ac-[hArg][hArg]Q[dR]P[NMeR][Cha]SHKG[Oic][Phe(4-I)]P[dBip]-OH (SMILES CC(=O)N[C@@H](CCCCNC(=N)N)C(=O)N[C@@H](CCCCNC(=N)N)C(=O)N[C@@H](CCC(N)=O)C(=O)N[C@H](CCCNC(=N)N)C(=O)N1CCC[C@H]1C(=O)N(C)[C@@H](CCCNC(=N)N)C(=O)N[C@@H](CC1CCCCC1)C(=O)N[C@@H](CO)C(=O)N[C@@H](Cc1c[nH]cn1)C(=O)N[C@@H](CCCCN)C(=O)NCC(=O)N1[C@H](C(=O)N[C@@H](Cc2ccc(I)cc2)C(=O)N2CCC[C@H]2C(=O)N[C@H](Cc2ccc(-c3ccccc3)cc2)C(=O)O)C[C@@H]2CCCC[C@@H]21) [apelin polypeptide SEQ ID NO: 22],1.52 nM,4.52 nM
Tridecanoyl-[γGlu][AEEA][AEEA][dQ][hArg]P[dR][Cha]SHKG[Oic][Nle][Phe(4-Cl)]-OH (SMILES CCCCCCCCCCCCC(=O)N[C@@H](CCC(=O)NCCOCCOCC(=O)NCCOCCOCC(=O)N[C@H](CCC(N)=O)C(=O)N[C@@H](CCCCNC(=N)N)C(=O)N1CCC[C@H]1C(=O)N[C@H](CCCNC(=N)N)C(=O)N[C@@H](CC1CCCCC1)C(=O)N[C@@H](CO)C(=O)N[C@@H](Cc1c[nH]cn1)C(=O)N[C@@H](CCCCN)C(=O)NCC(=O)N1[C@H](C(=O)N[C@@H](CCCC)C(=O)N[C@@H](Cc2ccc(Cl)cc2)C(=O)O)C[C@@H]2CCCC[C@@H]21)C(=O)O) [apelin polypeptide SEQ ID NO: 282],5.79 nM,13.3 nM
Tridecanoyl-[γGlu][AEEA][AEEA]Q[dR]P[NMeR][Cha]SHKG[Oic][Nle][d1Nal]-OH (SMILES CCCCCCCCCCCCC(=O)N[C@@H](CCC(=O)NCCOCCOCC(=O)NCCOCCOCC(=O)N[C@@H](CCC(N)=O)C(=O)N[C@H](CCCNC(=N)N)C(=O)N1CCC[C@H]1C(=O)N(C)[C@@H](CCCNC(=N)N)C(=O)N[C@@H](CC1CCCCC1)C(=O)N[C@@H](CO)C(=O)N[C@@H](Cc1c[nH]cn1)C(=O)N[C@@H](CCCCN)C(=O)NCC(=O)N1[C@H](C(=O)N[C@@H](CCCC)C(=O)N[C@H](Cc2cccc3ccccc23)C(=O)O)C[C@@H]2CCCC[C@@H]21)C(=O)O) [apelin polypeptide SEQ ID NO: 285],8.22 nM,122 nM
[Orn]F[NMeR][hArg]Q[hArg]P[hArg][Cha]SHKG[Oic][Nle]P[Phe(4-Cl)] [apelin polypeptide SEQ ID NO: 669],5.3 nM,5.59 nM
[Orn]F[hArg][hArg]Q[NMeR]P[hArg][Cha]SHKG[Oic][Nle]P[Phe(4-Cl)] [apelin polypeptide SEQ ID NO: 671],0.162 nM,0.387 nM
[code O]F[hArg][NMeR]Q[NMeR]P[NMeR][Cha]SHKG[Oic][Nle]P[Phe(4-Cl)] (reading uncertain) [apelin polypeptide SEQ ID NO: 673],1.34 nM,1.34 nM
Tridecanoyl-[γGlu][AEEA][AEEA][dQ][hArg]P[dR][Cha]SHKG[Oic][Nle][dPhe(4-Cl)]-OH (SMILES CCCCCCCCCCCCC(=O)N[C@@H](CCC(=O)NCCOCCOCC(=O)NCCOCCOCC(=O)N[C@H](CCC(N)=O)C(=O)N[C@@H](CCCCNC(=N)N)C(=O)N1CCC[C@H]1C(=O)N[C@H](CCCNC(=N)N)C(=O)N[C@@H](CC1CCCCC1)C(=O)N[C@@H](CO)C(=O)N[C@@H](Cc1c[nH]cn1)C(=O)N[C@@H](CCCCN)C(=O)NCC(=O)N1[C@H](C(=O)N[C@@H](CCCC)C(=O)N[C@H](Cc2ccc(Cl)cc2)C(=O)O)C[C@@H]2CCCC[C@@H]21)C(=O)O) [apelin polypeptide SEQ ID NO: 283],9.74 nM,15.6 nM
Tridecanoyl-[γGlu][AEEA][AEEA]Q[dR]P[NMeR][Cha]SHKG[Oic][Nle]P[dPhe(4-Cl)]-OH (SMILES CCCCCCCCCCCCC(=O)N[C@@H](CCC(=O)NCCOCCOCC(=O)NCCOCCOCC(=O)N[C@@H](CCC(N)=O)C(=O)N[C@H](CCCNC(=N)N)C(=O)N1CCC[C@H]1C(=O)N(C)[C@@H](CCCNC(=N)N)C(=O)N[C@@H](CC1CCCCC1)C(=O)N[C@@H](CO)C(=O)N[C@@H](Cc1c[nH]cn1)C(=O)N[C@@H](CCCCN)C(=O)NCC(=O)N1[C@H](C(=O)N[C@@H](CCCC)C(=O)N2CCC[C@H]2C(=O)N[C@H](Cc2ccc(Cl)cc2)C(=O)O)C[C@@H]2CCCC[C@@H]21)C(=O)O) [apelin polypeptide SEQ ID NO: 284],> 4170 nM,> 4170 nM

# Continued, values first:
EC50 Human APJ Receptor (human APJ receptor),EC50 Rat APJ Receptor (rat APJ receptor),Binder
0.111 nM,0.183 nM,[Orn]F[hArg][hArg][β3hQ][hArg]P[hArg][Cha]SHKG[Oic][Nle]P[Phe(4-Cl)] [apelin polypeptide SEQ ID NO: 690]
0.0946 nM,0.168 nM,[Orn]F[hArg][hArg]Q[hArg]P[hArg][Cha]SHKG[Oic][Nle][Aib][Phe(4-Cl)] [apelin polypeptide SEQ ID NO: 685]
0.453 nM,0.424 nM,[Orn]F[hArg][hArg][β3hN][hArg]P[hArg][Cha]SHKG[Oic][Nle]P[Phe(4-Cl)] [apelin polypeptide SEQ ID NO: 691]
0.116 nM,0.401 nM,[Orn]F[hArg][hArg]Q[hArg]P[hArg][Cha]SHK[Sar][Oic][Nle]P[Phe(4-Cl)] [apelin polypeptide SEQ ID NO: 680]
3.63 nM,33 nM,[Orn]F[hArg][hArg]Q[hArg]P[hArg][Cha]S[NMeV]KG[Oic][Nle]P[Phe(4-Cl)] [apelin polypeptide SEQ ID NO: 679]
0.723 nM,1.3 nM,[Orn]F[hArg][hArg]Q[hArg]P[hArg][Cha]SHK[Aib][Oic][Nle]P[Phe(4-Cl)] [apelin polypeptide SEQ ID NO: 681]
1.53 nM,7.98 nM,[Orn]F[hArg][hArg]Q[hArg]P[hArg][Cha]SHKG[Aib][Nle]P[Phe(4-Cl)] [apelin polypeptide SEQ ID NO: 682]
3.5 nM,3.48 nM,[Orn]F[hArg][hArg]Q[hArg][Aib][hArg][Cha]SHKG[Oic][Nle]P[Phe(4-Cl)] [apelin polypeptide SEQ ID NO: 677]
0.762 nM,0.84 nM,[Orn]F[hArg][hArg]Q[hArg][Sar][hArg][Cha]SHKG[Oic][Nle]P[Phe(4-Cl)] [apelin polypeptide SEQ ID NO: 676]
0.664 nM,2.11 nM,[Orn]F[hArg][hArg]Q[hArg]P[hArg][Cha][Sar]HKG[Oic][Nle]P[Phe(4-Cl)] [apelin polypeptide SEQ ID NO: 678]
0.379 nM,0.926 nM,[Orn]F[hArg][hArg]Q[hArg]P[hArg][Cha]SHKG[Sar][Nle]P[Phe(4-Cl)] [apelin polypeptide SEQ ID NO: 683]
0.0918 nM,0.175 nM,[Orn][BPhe][hArg][hArg]Q[hArg]P[hArg][Cha]SHKG[Oic][Nle]P[Phe(4-Cl)] [apelin polypeptide SEQ ID NO: 687]
0.114 nM,0.349 nM,[Orn]F[hArg][β3hR]Q[hArg]P[hArg][Cha]SHKG[Oic][Nle]P[Phe(4-Cl)] [apelin polypeptide SEQ ID NO: 689]
